Earlier results, collected in US20050261189A1, “Methods of promoting cardiac cell proliferation” (Hydra Biosciences, Inc., priority 2004, published 2005).

B1: Wnt4: Wnt polypeptide (protein, UniProt P56705 23-351, looked up)
Protein Wnt-4: SNWLYLAKLSSVGSISEEETCEKLKGLIQRQVQMCKRNLEVMDSVRRGAQLAIEECQYQFRNRRWNCSTLDSLPVFGKVVTQGTREAAFVYAISSAGVAFAVTRACSSGELEKCGCDRTVHGVSPQGFQWSGCSDNIAYGVAFSQSFVDVRERSKGASSSRALMNLHNNEAGRKAILTHMRVECKCHGVSGSCEVKTCWRAVPPFRQVGHALKEKFDGATEVEPRRVGSSRALVPRNAQFKPHTDEDLVYLEPSPDFCEQDMRSGVLGTRGRTCNKTSKAIDGCELLCCGRGFHTAQVELAERCSCKFHWCCFVKCRQCQRLVELHTCR
B2: Wnt2: Wnt polypeptide (protein, UniProt P09544 26-360, looked up)
Protein Wnt-2: SWWYMRATGGSSRVMCDNVPGLVSSQRQLCHRHPDVMRAISQGVAEWTAECQHQFRQHRWNCNTLDRDHSLFGRVLLRSSRESAFVYAISSAGVVFAITRACSQGEVKSCSCDPKKMGSAKDSKGIFDWGGCSDNIDYGIKFARAFVDAKERKGKDARALMNLHNNRAGRKAVKRFLKQECKCHGVSGSCTLRTCWLAMADFRKTGDYLWRKYNGAIQVVMNQDGTGFTVANERFKKPTKNDLVYFENSPDYCIRDREAGSLGTAGRVCNLTSRGMDSCEVMCCGRGYDTSHVTRMTKCGCKFHWCCAVRCQDCLEALDVHTCKAPKNADWTTAT
B3: Wnt7b: Wnt polypeptide (protein, UniProt P56706 25-349, looked up)
Protein Wnt-7b: ALSSVVALGANIICNKIPGLAPRQRAICQSRPDAIIVIGEGAQMGINECQYQFRFGRWNCSALGEKTVFGQELRVGSREAAFTYAITAAGVAHAVTAACSQGNLSNCGCDREKQGYYNQAEGWKWGGCSADVRYGIDFSRRFVDAREIKKNARRLMNLHNNEAGRKVLEDRMQLECKCHGVSGSCTTKTCWTTLPKFREVGHLLKEKYNAAVQVEVVRASRLRQPTFLRIKQLRSYQKPMETDLVYIEKSPNYCEEDAATGSVGTQGRLCNRTSPGADGCDTMCCGRGYNTHQYTKVWQCNCKFHWCCFVKCNTCSERTEVFTCK
B4: Wnt3: Wnt polypeptide (protein, UniProt P56703 22-355, looked up)
Proto-oncogene Wnt-3: GYPIWWSLALGQQYTSLGSQPLLCGSIPGLVPKQLRFCRNYIEIMPSVAEGVKLGIQECQHQFRGRRWNCTTIDDSLAIFGPVLDKATRESAFVHAIASAGVAFAVTRSCAEGTSTICGCDSHHKGPPGEGWKWGGCSEDADFGVLVSREFADARENRPDARSAMNKHNNEAGRTTILDHMHLKCKCHGLSGSCEVKTCWWAQPDFRAIGDFLKDKYDSASEMVVEKHRESRGWVETLRAKYSLFKPPTERDLVYYENSPNFCEPNPETGSFGTRDRTCNVTSHGIDGCDLLCCGRGHNTRTEKRKEKCHCIFHWCCYVSCQECIRIYDVHTCK
B5: Wnt8b: Wnt polypeptide (protein, UniProt Q93098 23-351, looked up)
Protein Wnt-8b: WSVNNFLMTGPKAYLIYSSSVAAGAQSGIEECKYQFAWDRWNCPERALQLSSHGGLRSANRETAFVHAISSAGVMYTLTRNCSLGDFDNCGCDDSRNGQLGGQGWLWGGCSDNVGFGEAISKQFVDALETGQDARAAMNLHNNEAGRKAVKGTMKRTCKCHGVSGSCTTQTCWLQLPEFREVGAHLKEKYHAALKVDLLQGAGNSAAGRGAIADTFRSISTRELVHLEDSPDYCLENKTLGLLGTEGRECLRRGRALGRWERRSCRRLCGDCGLAVEERRAETVSSCNCKFHWCCAVRCEQCRRRVTKYFCSRAERPRGGAAHKPGRKP
B6: Wnt5b: Wnt polypeptide (protein, UniProt Q9H1J7 18-359, looked up)
Protein Wnt-5b: QLLTDANSWWSLALNPVQRPEMFIIGAQPVCSQLPGLSPGQRKLCQLYQEHMAYIGEGAKTGIKECQHQFRQRRWNCSTADNASVFGRVMQIGSRETAFTHAVSAAGVVNAISRACREGELSTCGCSRTARPKDLPRDWLWGGCGDNVEYGYRFAKEFVDAREREKNFAKGSEEQGRVLMNLQNNEAGRRAVYKMADVACKCHGVSGSCSLKTCWLQLAEFRKVGDRLKEKYDSAAAMRVTRKGRLELVNSRFTQPTPEDLVYVDPSPDYCLRNESTGSLGTQGRLCNKTSEGMDGCELMCCGRGYNQFKSVQVERCHCKFHWCCFVRCKKCTEIVDQYICK
B7: Wnt9b: Wnt polypeptide (protein, UniProt O14905 23-357, looked up)
Protein Wnt-9b: SYFGLTGREVLTPFPGLGTAAAPAQGGAHLKQCDLLKLSRRQKQLCRREPGLAETLRDAAHLGLLECQFQFRHERWNCSLEGRMGLLKRGFKETAFLYAVSSAALTHTLARACSAGRMERCTCDDSPGLESRQAWQWGVCGDNLKYSTKFLSNFLGSKRGNKDLRARADAHNTHVGIKAVKSGLRTTCKCHGVSGSCAVRTCWKQLSPFRETGQVLKLRYDSAVKVSSATNEALGRLELWAPARQGSLTKGLAPRSGDLVYMEDSPSFCRPSKYSPGTAGRVCSREASCSSLCCGRGYDTQSRLVAFSCHCQVQWCCYVECQQCVQEELVYTCKH
B8: Wnt9a: Wnt polypeptide (protein, UniProt O14904 30-365, looked up)
Protein Wnt-9a: YFGLTGSEPLTILPLTLEPEAAAQAHYKACDRLKLERKQRRMCRRDPGVAETLVEAVSMSALECQFQFRFERWNCTLEGRYRASLLKRGFKETAFLYAISSAGLTHALAKACSAGRMERCTCDEAPDLENREAWQWGGCGDNLKYSSKFVKEFLGRRSSKDLRARVDFHNNLVGVKVIKAGVETTCKCHGVSGSCTVRTCWRQLAPFHEVGKHLKHKYETALKVGSTTNEAAGEAGAISPPRGRASGAGGSDPLPRTPELVHLDDSPSFCLAGRFSPGTAGRRCHREKNCESICCGRGHNTQSRVVTRPCQCQVRWCCYVECRQCTQREEVYTCKG
B9: Wnt7a: Wnt polypeptide (protein, UniProt O00755 32-349, looked up)
Protein Wnt-7a: LGASIICNKIPGLAPRQRAICQSRPDAIIVIGEGSQMGLDECQFQFRNGRWNCSALGERTVFGKELKVGSREAAFTYAIIAAGVAHAITAACTQGNLSDCGCDKEKQGQYHRDEGWKWGGCSADIRYGIGFAKVFVDAREIKQNARTLMNLHNNEAGRKILEENMKLECKCHGVSGSCTTKTCWTTLPQFRELGYVLKDKYNEAVHVEPVRASRNKRPTFLKIKKPLSYRKPMDTDLVYIEKSPNYCEEDPVTGSVGTQGRACNKTAPQASGCDLMCCGRGYNTHQYARVWQCNCKFHWCCYVKCNTCSERTEMYTCK
B10: Wnt6: Wnt polypeptide (protein, UniProt Q9Y6F9 25-365, looked up)
Protein Wnt-6: LWWAVGSPLVMDPTSICRKARRLAGRQAELCQAEPEVVAELARGARLGVRECQFQFRFRRWNCSSHSKAFGRILQQDIRETAFVFAITAAGASHAVTQACSMGELLQCGCQAPRGRAPPRPSGLPGTPGPPGPAGSPEGSAAWEWGGCGDDVDFGDEKSRLFMDARHKRGRGDIRALVQLHNNEAGRLAVRSHTRTECKCHGLSGSCALRTCWQKLPPFREVGARLLERFHGASRVMGTNDGKALLPAVRTLKPPGRADLLYAADSPDFCAPNRRTGSPGTRGRACNSSAPDLSGCDLLCCGRGHRQESVQLEENCLCRFHWCCVVQCHRCRVRKELSLCL
B11: Wnt11: Wnt polypeptide (protein, UniProt O96014 25-354, looked up)
Protein Wnt-11: IKWLALSKTPSALALNQTQHCKQLEGLVSAQVQLCRSNLELMHTVVHAAREVMKACRRAFADMRWNCSSIELAPNYLLDLERGTRESAFVYALSAAAISHAIARACTSGDLPGCSCGPVPGEPPGPGNRWGGCADNLSYGLLMGAKFSDAPMKVKKTGSQANKLMRLHNSEVGRQALRASLEMKCKCHGVSGSCSIRTCWKGLQELQDVAADLKTRYLSATKVVHRPMGTRKHLVPKDLDIRPVKDSELVYLQSSPDFCMKNEKVGSHGTQDRQCNKTSNGSDSCDLMCCGRGYNPYTDRVVERCHCKYHWCCYVTCRRCERTVERYVCK
B12: Wnt1: Wnt polypeptide (protein, UniProt P04628 28-370, looked up)
Proto-oncogene Wnt-1: ANSSGRWWGIVNVASSTNLLTDSKSLQLVLEPSLQLLSRKQRRLIRQNPGILHSVSGGLQSAVRECKWQFRNRRWNCPTAPGPHLFGKIVNRGCRETAFIFAITSAGVTHSVARSCSEGSIESCTCDYRRRGPGGPDWHWGGCSDNIDFGRLFGREFVDSGEKGRDLRFLMNLHNNEAGRTTVFSEMRQECKCHGMSGSCTVRTCWMRLPTLRAVGDVLRDRFDGASRVLYGNRGSNRASRAELLRLEPEDPAHKPPSPHDLVYFEKSPNFCTYSGRLGTAGTAGRACNSSSPALDGCELLCCGRGHRTRTQRVTERCNCTFHWCCHVSCRNCTHTRVLHECL
B13: Wnt16: Wnt polypeptide (protein, UniProt Q9UBV4 30-365, looked up)
Protein Wnt-16: NWMWLGIASFGVPEKLGCANLPLNSRQKELCKRKPYLLPSIREGARLGIQECGSQFRHERWNCMITAAATTAPMGASPLFGYELSSGTKETAFIYAVMAAGLVHSVTRSCSAGNMTECSCDTTLQNGGSASEGWHWGGCSDDVQYGMWFSRKFLDFPIGNTTGKENKVLLAMNLHNNEAGRQAVAKLMSVDCRCHGVSGSCAVKTCWKTMSSFEKIGHLLKDKYENSIQISDKTKRKMRRREKDQRKIPIHKDDLLYVNKSPNYCVEDKKLGIPGTQGRECNRTSEGADGCNLLCCGRGYNTHVVRHVERCECKFIWCCYVRCRRCESMTDVHTCK
B14: Wnt8a: Wnt polypeptide (protein, UniProt Q9H1J5 25-351, looked up)
Protein Wnt-8a: VNNFLITGPKAYLTYTTSVALGAQSGIEECKFQFAWERWNCPENALQLSTHNRLRSATRETSFIHAISSAGVMYIITKNCSMGDFENCGCDGSNNGKTGGHGWIWGGCSDNVEFGERISKLFVDSLEKGKDARALMNLHNNRAGRLAVRATMKRTCKCHGISGSCSIQTCWLQLAEFREMGDYLKAKYDQALKIEMDKRQLRAGNSAEGHWVPAEAFLPSAEAELIFLEESPDYCTCNSSLGIYGTEGRECLQNSHNTSRWERRSCGRLCTECGLQVEERKTEVISSCNCKFQWCCTVKCDQCRHVVSKYYCARSPGSAQSLGKGSA

Test system: one or more non-cardiac cells types
Settings: cited from earlier work
In the case of Wnt10b: Wnt polypeptide, the “Wnt signaling pathway shown in one or more non-cardiac cell types” value is listed as “signal via the canonical pathway”.
For B1, the “Wnt signaling pathway shown in one or more non-cardiac cell types” value is listed as “signal via the non-canonical signaling pathway”.
In the case of B2, the “Wnt signaling pathway shown in one or more non-cardiac cell types” value is given as “signal via the canonical pathway”.
In the case of B3, the “Wnt signaling pathway shown in one or more non-cardiac cell types” value is listed as “signal via the non-canonical signaling pathway”.
In the case of B4, the “Wnt signaling pathway shown in one or more non-cardiac cell types” value is listed as “signal via the canonical pathway”.
In the case of B5, the “Wnt signaling pathway shown in one or more non-cardiac cell types” value is listed as “signal via the canonical pathway”.
For B6, the “Wnt signaling pathway shown in one or more non-cardiac cell types” value is given as “signal via the non-canonical signaling pathway”.
In the case of B7, the “Wnt signaling pathway shown in one or more non-cardiac cell types” value is given as “signal via the canonical pathway”.
In the case of B8, the “Wnt signaling pathway shown in one or more non-cardiac cell types” value is given as “signal via the canonical pathway”.
For B9, the “Wnt signaling pathway shown in one or more non-cardiac cell types” value is given as “signal via the canonical pathway”.
For B10, the “Wnt signaling pathway shown in one or more non-cardiac cell types” value is given as “signal via the canonical pathway”.
For B11, the “Wnt signaling pathway shown in one or more non-cardiac cell types” value is listed as “signal via the non-canonical signaling pathway”.
In the case of B12, the “Wnt signaling pathway shown in one or more non-cardiac cell types” value is given as “signal via the canonical pathway”.
For B13, the “Wnt signaling pathway shown in one or more non-cardiac cell types” value is given as “signal via the canonical pathway”.
For B14, the “Wnt signaling pathway shown in one or more non-cardiac cell types” value is given as “signal via the canonical pathway”.
